In paper PMC11931385, “Structural and functional analysis of cancer-associated missense variants in the retinoblastoma protein pocket domain” (The Journal of Biological Chemistry, 2025):
Changes are numbered by the printed parent chain. Names and notes keep the numbering of the source. No end group written: not given here. TMR = tetramethyl rhodamine dye

Key:
Test in all cases: fluorescence polarisation; 25 °C; unlabeled Rb^P titrated against 1.5 nM TMR-E2F1^TD or 7.5 nM TMR-E7^LxCxE; 25 mM Tris pH 8.0, 200 mM NaCl, 1 mM DTT, 0.1% Tween-20; 2 min incubation; quadratic fit; apparent Kd for the variants, Kd for WT
Details in all cases: both partners purified
Rb^P R656W = molecular target: T1, Rb^P R656W (human, UniProt P06400 380-788, R656W)
T1 construct: also called variant 49
T1 sequence (looked up): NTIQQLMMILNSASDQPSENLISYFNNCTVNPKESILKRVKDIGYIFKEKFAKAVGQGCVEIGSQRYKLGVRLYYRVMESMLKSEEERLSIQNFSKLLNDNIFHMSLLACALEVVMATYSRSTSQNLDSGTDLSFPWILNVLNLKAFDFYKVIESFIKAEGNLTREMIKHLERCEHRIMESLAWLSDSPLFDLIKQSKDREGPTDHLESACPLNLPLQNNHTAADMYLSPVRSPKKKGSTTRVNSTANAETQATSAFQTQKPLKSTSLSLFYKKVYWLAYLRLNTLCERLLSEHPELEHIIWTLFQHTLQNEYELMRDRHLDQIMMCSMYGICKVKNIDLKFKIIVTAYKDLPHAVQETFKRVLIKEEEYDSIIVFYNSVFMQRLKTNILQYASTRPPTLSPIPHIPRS

Rb^P R451C = molecular target: T2, Rb^P R451C (human, UniProt P06400 380-788, R451C)
T2 construct: also called variant 5
T2 sequence (looked up): T1 sequence (looked up) with R72C, W277R

Rb^P T638S = molecular target: T3, Rb^P T638S (human, UniProt P06400 380-788, T638S)
T3 construct: also called variant 45
T3 sequence (looked up): T1 sequence (looked up) with T259S, W277R

Rb^P S474I = molecular target: T4, Rb^P S474I (human, UniProt P06400 380-788, S474I)
T4 construct: also called variant 11
T4 sequence (looked up): T1 sequence (looked up) with S95I, W277R

Rb^P E440K = molecular target: T5, Rb^P E440K (human, UniProt P06400 380-788, E440K)
T5 construct: also called variant 1
T5 sequence (looked up): T1 sequence (looked up) with E61K, W277R

B1: TMR-E2F1^TD, peptide of the E2F1 transactivation domain (peptide)
peptide: {TMR}-GEGIRDLFDCDFGDLTPLD
notes: also called E2F^TD; source: synthetic peptide, bought: GenScript
- Kd (Rb^P R656W): 39 nM
- Kd (Rb^P R451C): 33 nM
- Kd (Rb^P T638S): 14 nM
- Kd (Rb^P S474I): 364 nM
- Kd (Rb^P E440K): 12 nM

B2: TMR-E7^LxCxE, LxCxE peptide of the E7 oncoprotein from HPV (peptide)
peptide: DLYCYEQLN
modifications: also: TMR label, position not given here
notes: source: synthetic peptide, bought: GenScript
- Kd (Rb^P R656W): 8 nM
- Kd (Rb^P R451C): 7 nM
- Kd (Rb^P T638S): 7 nM
- Kd (Rb^P S474I): 7 nM
- Kd (Rb^P E440K): 5 nM
